The values that follow come from patent publication US20200199231A1 (Genmab, published 2020).

Broadly, the EC50 (read off the curve) is the concentration needed to bring the measured effect to its halfway point. Low readings indicate higher potency in that assay, high ones lower potency in that assay.

In assay [1] the target is T1, human CD20 (human, UniProt P11836 1-297).
T1 construct: whole, on cells; On Daudi and other human B cell lines, on human B cells in blood, or transiently expressed in HEK293F cells (construct pEE12.4CD20HS-GA); also called wild type CD20; WT CD20
T1 sequence (looked up): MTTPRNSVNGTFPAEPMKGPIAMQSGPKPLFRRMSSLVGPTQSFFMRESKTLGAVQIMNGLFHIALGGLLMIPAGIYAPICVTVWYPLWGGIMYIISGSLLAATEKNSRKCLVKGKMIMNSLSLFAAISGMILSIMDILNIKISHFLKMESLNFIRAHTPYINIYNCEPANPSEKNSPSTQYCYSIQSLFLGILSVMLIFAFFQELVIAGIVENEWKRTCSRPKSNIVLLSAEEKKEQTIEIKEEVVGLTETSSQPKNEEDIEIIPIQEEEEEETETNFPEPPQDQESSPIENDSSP
In words: flow cytometry on Daudi cells (CD20-positive, CD3-negative); PE-conjugated goat anti-human IgG F(ab')2; geomean (PE). The protocol:
(§1) In addition to the non-activating mutations, L234F, L235E, D265A, on both arms, the bispecific antibody contained an F405L mutation on one arm and a K409R mutation on the other arm.
(§2) Cells (1×10⁵ cells/well) were incubated in polystyrene 96-well round-bottom plates (Greiner bio-one, cat. no. 650101) with serial dilutions of antibodies (range 0.041 to 30 μg/mL in 3-fold dilution steps [A-E] and 0.00061 to 10 μg/mL in 4-fold dilution steps [F-I]) in 100 μL PBS/0.1% BSA/0.02% azide (from here designated as staining buffer) at 4° C. for 30 min.
(§3) After washing twice in staining buffer, cells were incubated in 50 μL secondary antibody at 4° C. for 30 min. As a secondary antibody, R-Phycoerythrin (PE)-conjugated goat-anti-human IgG F(ab′)₂ (cat. no. 109-116-098, Jackson ImmunoResearch Laboratories, Inc., West Grove, Pa.) diluted 1:200 in staining buffer, was used for all experiments. Next, cells were washed twice in staining buffer, re-suspended in 30 μL staining buffer and analyzed on an iQue screener (Intellicyt Corporation, USA) (for FIG. 1A-E) or re-suspended in 100 μL staining buffer and analyzed on a FACSCANTOII (BD Biosciences) (FIG. 1F-I). Binding curves were analyzed using non-linear regression (sigmoidal dose-response with variable slope) using GraphPad Prism V75.04 software (GraphPad Software, San Diego, Calif., USA).

For assay [2], the target named is T1, human CD20. Description: flow cytometry on Daudi cells (CD20-positive, CD3-negative); PE-conjugated goat anti-human IgG F(ab')2; median FI (PE). The protocol: as §1, §2, §3
(A flow cytometer gives signals particle by particle.)

The target of assay [3] is T2, CD20 KDD mutant (human, UniProt P11836 1-297).
T2 construct: whole, on cells; Transiently expressed in HEK293F cells; also called T159K/N163D/N166D
T2 sequence (looked up): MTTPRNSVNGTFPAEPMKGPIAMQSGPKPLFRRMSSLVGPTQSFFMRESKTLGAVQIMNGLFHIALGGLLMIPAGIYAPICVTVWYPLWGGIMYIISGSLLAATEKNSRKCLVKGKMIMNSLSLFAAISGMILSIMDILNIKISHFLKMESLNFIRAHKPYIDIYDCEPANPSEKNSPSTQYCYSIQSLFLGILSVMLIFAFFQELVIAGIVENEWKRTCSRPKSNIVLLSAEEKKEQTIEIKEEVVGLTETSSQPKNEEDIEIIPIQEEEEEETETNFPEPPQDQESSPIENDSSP
Description: flow cytometry, HEK293F cells expressing CD20 KDD mutant. The protocol: (§4) PCR was performed on a Tgradient Thermocycler 96 (Biometra) using a 35 cycle program of: +95° C. for 15 min, followed by 35 cycles of: +94° C. for 30 sec, anneal: 55° C. for 30 sec and extension: +72° C. for 2 min, followed by a final extension step at 72° C. for 10 min and subsequent storage at 4° C. The completed reactions were analyzed by agarose gel electrophoresis. See Table 11 for details of primer pairs used for colony PCR. DNA sequencing: Plasmid DNA samples were send to AGOWA (Berlin, Germany) for sequence analysis. Sequences were analyzed using the VectorNTI software package (Informax, Frederick, Md., USA).
(§5) Mutagenesis: The mutagenesis was performed, using the QuikChange® XL Site-Directed Mutagenesis kit (Cat 200517-5, Lot 1120630, Stratagene Europe) according to the manufacturer's instructions. Mutagenesis reactions were concentrated using ethanol precipitation and transformed into either oneshot DH5α-TIR competent E. coli cells or electroporated into ElectroTen-Blue® Electroporation-Competent Cells. Colonies were checked by colony PCR and restriction digestion prior to transfection. […] Anti-CD20 Antibody binding: HEK293F cells were taken up in staining buffer (PBS supplemented with 0.1% BSA and 0.02% NaN₃) and added to round bottom plates (1-3×10⁵/well in 100 μL). […] After washing twice in staining buffer, cells were incubated in 50 μL secondary antibody at 4° C. for 30 min. As a secondary antibody, R-Phycoerythrin (PE)-conjugated goat-anti-human IgG F(ab′)₂ was used, as described supra. Next, cells were washed once in staining buffer, re-suspended in 150 μL staining buffer and analyzed on a flow cytometer (FACSCanto-720, Becton Dickinson, San Diego, Calif., USA) and 10,000 events per sample were acquired at high flow rate. Binding curves were analyzed using non-linear regression (sigmoidal dose-response with variable slope) using GraphPad Prism V75.04 software (GraphPad Software, San Diego, Calif., USA).

The target of assay [4] is T1, human CD20. Description: flow cytometry on HEK293F cells transiently expressing wild type CD20; PE-conjugated goat anti-human IgG F(ab')2; MFI. As to the method:
as §4, §5

Assay [5] concerns the target T2, CD20 KDD mutant. Description: flow cytometry, HEK293F transfectants, MFI mutant/MFI wt at 10 µg/mL. The protocol: (§6) As a secondary antibody, R-Phycoerythrin (PE)-conjugated goat-anti-human IgG F(ab′)₂ was used, as described supra. Next, cells were washed once in staining buffer, re-suspended in 150 μL staining buffer and analyzed on a flow cytometer (FACSCanto-720, Becton Dickinson, San Diego, Calif., USA) and 10,000 events per sample were acquired at high flow rate. Binding curves were analyzed using non-linear regression (sigmoidal dose-response with variable slope) using GraphPad Prism V75.04 software (GraphPad Software, San Diego, Calif., USA).
(§7) Numbers indicate the percentage of binding to the CD20 mutants, relative to binding to wild type CD20, at 10 μg/mL. The percentage of binding was calculated by the following formula: (MFI binding to CD20 mutant)/(MFI binding CD20 wt) × 100%

Assay [6] addresses T3, CD20-AxP (human, UniProt P11836 1-297).
T3 construct: whole, on cells; Transiently expressed in HEK293F cells; also called AxP mutant; CD20 mutant (CD20-AxP)
T3 sequence (looked up): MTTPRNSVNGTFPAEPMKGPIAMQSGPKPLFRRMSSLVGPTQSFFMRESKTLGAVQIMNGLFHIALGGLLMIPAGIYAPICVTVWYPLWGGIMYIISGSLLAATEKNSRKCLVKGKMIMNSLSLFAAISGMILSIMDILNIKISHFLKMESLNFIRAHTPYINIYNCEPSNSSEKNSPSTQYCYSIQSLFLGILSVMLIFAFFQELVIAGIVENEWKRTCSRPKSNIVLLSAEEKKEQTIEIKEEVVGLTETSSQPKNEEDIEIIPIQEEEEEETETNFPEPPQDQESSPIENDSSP
The assay is described as above. The protocol:
as §6, §7

Assay [7] deals with T1, human CD20. In words: flow cytometry on Daudi cells (CD20-positive, CD3-negative); PE-conjugated goat anti-human IgG F(ab')2; median FI (PE). As to the method:
as §1, §2, §3
The source holds these as a separate data set.

Assay [8] has as its target T3, CD20-AxP. In words: flow cytometry on HEK293F cells transiently expressing CD20-AxP (A170S/P172S); PE-conjugated goat anti-human IgG F(ab')2; MFI. As to the method:
as §4, §5

A further assay concerns the target T4, human CD3 (human, UniProt P07766 22-207).
T4 construct: CD3 as part of the TCR complex on Jurkat cells or human T cells; also called human CD3ε (epsilon)
Description: flow cytometry on Jurkat cells (CD3-positive, CD20-negative); PE-conjugated goat anti-human IgG F(ab')2; median FI (PE). As to the method:
as §1, §2, §3

T4 sequence (P07766 22-207 limits assumed): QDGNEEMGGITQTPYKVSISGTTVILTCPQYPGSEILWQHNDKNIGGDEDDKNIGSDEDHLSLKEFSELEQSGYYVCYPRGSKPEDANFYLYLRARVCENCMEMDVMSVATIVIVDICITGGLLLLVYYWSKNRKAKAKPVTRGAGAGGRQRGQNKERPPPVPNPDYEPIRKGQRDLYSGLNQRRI

B1: IgG1-11B8 (antibody, V domains shown)
VH: EVQLVQSGGGLVHPGGSLRLSCTGSGFTFSYHAMHWVRQAPGKGLEWVSIIGTGGVTYYADSVKGRFTISRDNVKNSLYLQMNSLRAEDMAVYYCARDYYGAGSFYDGLYGMDVWGQGTTVTVSS
VL: EIVLTQSPATLSLSPGERATLSCRASQSVSSYLAWYQQKPGQAPRLLIYDASNRATGIPARFSGSGSGTDFTLTISSLEPEDFAVYYCQQRSDWPLTFGGGTKVEIK
notes: Monospecific, bivalent IgG1
Regarding B1, the “EC50 (read off the curve)” value in the assay with human CD20 [1] is approximately 2 µg/mL.

B2: bsIgG1-huCD3-H1L1-FEALxCD20-2C6-FEAR (bispecific antibody)
heavy 1: not shown
light: not shown
heavy 2: AVQLVESGGGLVQPGRSLRLSCAASGFTFGDYTMHWVRQAPGKGLEWVSGISWNSGSIGYADSVKGRFTISRDNAKNSLYLQMNSLRAEDTALYYCTKDNQYGSGSTYGLGVWGQGTLVTVSSASTKGPSVFPLAPSSKSTSGGTAALGCLVKDYFPEPVTVSWNSGALTSGVHTFPAVLQSSGLYSLSSVVTVPSSSLGTQTYICNVNHKPSNTKVDKRVEPKSCDKTHTCPPCPAPEFEGGPSVFLFPPKPKDTLMISRTPEVTCVVVAVSHEDPEVKFNWYVDGVEVHNAKTKPREEQYNSTYRVVSVLTVLHQDWLNGKEYKCKVSNKALPAPIEKTISKAKGQPREPQVYTLPPSREEMTKNQVSLTCLVKGFYPSDIAVEWESNGQPENNYKTTPPVLDSDGSFFLYSRLTVDKSRWQQGNVFSCSVMHEALHNHYTQKSLSLSPGK
VL: EIVLTQSPATLSLSPGERATLSCRASQSVSSYLAWYQQKPGQAPRLLIYDASNRATGIPARFSGSGSGTDFTLTISSLEPEDFAVYYCQQRSNWPLTFGGGTKVEIK
notes: also called CD3x2C6; huCD3x2C6
As for B2, the “EC50 (read off the curve)” value with human CD20 [2] is approximately 0.9 µg/mL; with human CD20 [4], approximately 0.1 µg/mL. Moreover, in the assay with CD20 KDD mutant [3], the binding result is listed as “no binding (tested: 0.0015-10 µg/mL)”. Besides, the “% of wt CD20 binding” value in the assay with CD20 KDD mutant [5] came to 3%; in the assay with CD20-AxP [6], 92%.

B3: IgG1-7D8 (antibody, V domains shown)
VH: EVQLVESGGGLVQPDRSLRLSCAASGFTFHDYAMHWVRQAPGKGLEWVSTISWNSGTIGYADSVKGRFTISRDNAKNSLYLQMNSLRAEDTALYYCAKDIQYGNYYYGMDVWGQGTTVTVSS
VL: EIVLTQSPATLSLSPGERATLSCRASQSVSSYLAWYQQKPGQAPRLLIYDASNRATGIPARFSGSGSGTDFTLTISSLEPEDFAVYYCQQRSNWPITFGQGTRLEIK
notes: Monospecific, bivalent IgG1
Regarding B3, the “EC50 (read off the curve)” value with human CD20 [1] was approximately 0.6 µg/mL.

B4: bsIgG1-huCLB-T3/4-FEALxCD20-2F2-FEAR (bispecific antibody)
heavy 1: EVQLVESGGGLVKPGGSLRLSCAASGFTFSSYGMFWVRQAPGKGLEWVATISRYSRYIYYPDSVKGRFTISRDNAKNSLYLQMNSLRAEDTAVYYCARRPLYGSSPDYWGQGTLVTVSSASTKGPSVFPLAPSSKSTSGGTAALGCLVKDYFPEPVTVSWNSGALTSGVHTFPAVLQSSGLYSLSSVVTVPSSSLGTQTYICNVNHKPSNTKVDKRVEPKSCDKTHTCPPCPAPEFEGGPSVFLFPPKPKDTLMISRTPEVTCVVVAVSHEDPEVKFNWYVDGVEVHNAKTKPREEQYNSTYRVVSVLTVLHQDWLNGKEYKCKVSNKALPAPIEKTISKAKGQPREPQVYTLPPSREEMTKNQVSLTCLVKGFYPSDIAVEWESNGQPENNYKTTPPVLDSDGSFLLYSKLTVDKSRWQQGNVFSCSVMHEALHNHYTQKSLSLSPGK
VL 1: EIVLTQSPATLSLSPGERATLSCSASSSVTYVHWYQQKPGQAPRLLIYDTSKLASGIPARFSGSGSGTDFTLTISSLEPEDFAVYYCFQGSGYPLTFGSGTKLEMR
heavy 2: EVQLVESGGGLVQPGRSLRLSCAASGFTFNDYAMHWVRQAPGKGLEWVSTISWNSGSIGYADSVKGRFTISRDNAKKSLYLQMNSLRAEDTALYYCAKDIQYGNYYYGMDVWGQGTTVTVSSASTKGPSVFPLAPSSKSTSGGTAALGCLVKDYFPEPVTVSWNSGALTSGVHTFPAVLQSSGLYSLSSVVTVPSSSLGTQTYICNVNHKPSNTKVDKRVEPKSCDKTHTCPPCPAPEFEGGPSVFLFPPKPKDTLMISRTPEVTCVVVAVSHEDPEVKFNWYVDGVEVHNAKTKPREEQYNSTYRVVSVLTVLHQDWLNGKEYKCKVSNKALPAPIEKTISKAKGQPREPQVYTLPPSREEMTKNQVSLTCLVKGFYPSDIAVEWESNGQPENNYKTTPPVLDSDGSFFLYSRLTVDKSRWQQGNVFSCSVMHEALHNHYTQKSLSLSPGK
VL 2: EIVLTQSPATLSLSPGERATLSCRASQSVSSYLAWYQQKPGQAPRLLIYDASNRATGIPARFSGSGSGTDFTLTISSLEPEDFAVYYCQQRSNWPITFGQGTRLEIK
notes: also called huCLB-T3/4x2F2; bsIgG1-huCLB-3/4-FEALxCD20-2F2-FEAR
In the case of B4, the “EC50 (read off the curve)” value in the assay with human CD20 [7] is approximately 0.3 µg/mL; with human CD20 [4], approximately 0.1 µg/mL; in the assay with CD20-AxP [8] it was approximately 0.2 µg/mL; in the assay with human CD3, approximately 0.06 µg/mL. The binding result in the assay with CD20 KDD mutant [3] is listed as “no binding (tested: 0.0015-10 µg/mL)”. In addition, the results for the “% of wt CD20 binding” value with CD20 KDD mutant [5] and with CD20-AxP [6] were 5% and 112%, respectively.
